Ends that are not written are not given here. * marks the point of attachment. Biotin = O=C1N[C@H]2[C@H](CS[C@H]2CCCCC(=O)*)N1
Assays:
Assay in all cases: peptide or protein array; E. coli proteome chip: purified His-tagged proteins printed in duplicate on Fullmoon slides, blocked with 1% BSA; 10 nM N-terminal biotinylated LfcinB with 1% BSA, room temperature, 1 h; detected with DyLight 649-labeled streptavidin, ratio to DyLight 549-labeled anti-His antibody; ProCAT normalisation, local cut-off; triplicate chips
Settings in all cases: both partners purified
FlgC = biological target: T1, FlgC (E. coli K-12, UniProt P0ABX2 1-134)
T1 construct: FlgC, E. coli K-12
T1 sequence (looked up): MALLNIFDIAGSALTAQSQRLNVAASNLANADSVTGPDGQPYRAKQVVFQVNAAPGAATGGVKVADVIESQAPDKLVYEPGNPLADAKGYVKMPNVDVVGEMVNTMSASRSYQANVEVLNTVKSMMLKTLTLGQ

YfbO = biological target: T2, YfbO (E. coli K-12, UniProt P76485 1-140)
T2 construct: YfbO, E. coli K-12
T2 sequence (looked up): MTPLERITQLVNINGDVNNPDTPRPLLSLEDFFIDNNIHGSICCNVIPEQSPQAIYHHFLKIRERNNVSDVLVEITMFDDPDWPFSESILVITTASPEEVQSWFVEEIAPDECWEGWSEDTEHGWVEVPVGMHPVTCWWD

RplE = RplE (E. coli K-12, UniProt P62399 1-179)
RplN = RplN (E. coli K-12, UniProt P0ADY3 1-123)
RhaD = biological target: T3, RhaD (E. coli K-12, UniProt P32169 1-274)
T3 construct: RhaD, E. coli K-12
T3 sequence (looked up): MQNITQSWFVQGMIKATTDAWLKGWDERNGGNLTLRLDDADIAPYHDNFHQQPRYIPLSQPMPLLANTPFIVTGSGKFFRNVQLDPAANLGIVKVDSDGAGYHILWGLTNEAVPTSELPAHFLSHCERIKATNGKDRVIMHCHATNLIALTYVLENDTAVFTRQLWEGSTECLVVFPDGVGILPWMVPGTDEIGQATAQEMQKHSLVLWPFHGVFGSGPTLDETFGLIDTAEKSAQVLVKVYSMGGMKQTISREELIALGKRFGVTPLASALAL

YhiW = biological target: T4, YhiW (E. coli K-12, UniProt P63201 1-242)
T4 construct: YhiW, E. coli K-12
T4 sequence (looked up): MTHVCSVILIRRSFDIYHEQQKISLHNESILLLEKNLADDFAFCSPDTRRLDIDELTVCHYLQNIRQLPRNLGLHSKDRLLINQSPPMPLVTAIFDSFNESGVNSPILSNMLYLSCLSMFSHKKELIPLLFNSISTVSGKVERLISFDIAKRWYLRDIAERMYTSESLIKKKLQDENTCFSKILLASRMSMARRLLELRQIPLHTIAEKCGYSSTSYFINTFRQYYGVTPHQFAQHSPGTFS

YhdG = biological target: T5, YhdG (E. coli K-12, UniProt P0ABT5 1-321)
T5 construct: YhdG, E. coli K-12
T5 sequence (looked up): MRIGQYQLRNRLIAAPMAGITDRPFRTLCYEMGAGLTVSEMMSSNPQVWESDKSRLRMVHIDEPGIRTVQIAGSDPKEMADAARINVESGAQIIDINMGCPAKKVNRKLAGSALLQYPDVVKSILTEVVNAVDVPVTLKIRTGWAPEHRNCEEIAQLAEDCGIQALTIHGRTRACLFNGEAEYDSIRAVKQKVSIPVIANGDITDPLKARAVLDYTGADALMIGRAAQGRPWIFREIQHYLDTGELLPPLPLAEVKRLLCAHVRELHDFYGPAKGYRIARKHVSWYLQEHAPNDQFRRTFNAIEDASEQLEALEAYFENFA

YdaW = biological target: T6, YdaW (E. coli K-12, UniProt P76066 1-186)
T6 construct: YdaW, E. coli K-12
T6 sequence (looked up): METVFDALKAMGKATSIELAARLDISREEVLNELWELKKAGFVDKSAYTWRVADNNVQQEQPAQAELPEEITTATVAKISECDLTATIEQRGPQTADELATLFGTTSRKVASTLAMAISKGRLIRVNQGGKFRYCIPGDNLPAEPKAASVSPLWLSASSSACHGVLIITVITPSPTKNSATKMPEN

Measured: binding result

B1: N-terminal biotinylated Lactoferricin B (peptide, UniProt P24627 36-60, looked up)
peptide: Biotin-FKCRRWQWRMKKLGAPSITCVRRAF
modifications: ends and bridges not checked
notes: lactoferricin B (LfcinB), cationic antimicrobial peptide of 25 amino acids; also called biotinylated LfcinB; biotin-labeled LfcinB; source: bought: Kelowna Inc
binds: all assays above
